Assay results: article PMC8024337

Target: Ror2-mCherry (xRor2-mCherry in pCS2+)
Assay: fluorescence cross-correlation spectroscopy (FCCS); plasma membrane of live PAC2 cells expressing GFP-Vangl2 and Ror2-mCherry; untreated control (no Wnt protein added); laser spot scanned across the membrane for 16 s; diffusion with triplet fit

“GFP-Vangl2 (meGFP-Vangl2 in pcDNA3.1) (from UniProt Q8UVJ6 1-526) (natural protein)” was tested, and the KD without m3 or m4 (untreated control) was over 1100 nM.
